Assay results as given in article PMC11535055, “ER-phagy restrains inflammatory responses through its receptor UBAC2” (The EMBO Journal, 2024).

How the values were obtained:
[1] = target: GABARAP (UniProt O95166); assay: co-IP Flag-GABARAP with HA-UBAC2; details: reference: wild type; sites S223
[2] = target: the molecule itself; assay: cross-linking; extracts of HeLa cells (also WT THP-1 macrophages and HT-29 cells) treated with TG or EBSS in the presence of Baf A1 (0.2 uM); 2 mM disuccinimidyl suberate (DSS), immunoblot for endogenous UBAC2
[3] = target: the molecule itself; assay: cross-linking; 293T cells transfected with WT UBAC2 or S223 mutants, TG (1 uM, 1 h) or EBSS (3 h) with Baf A1 (0.2 uM), with scramble or MARK2 siRNA; lysates treated with 2 mM DSS, immunoblot

| Molecule | stoichiometry N [3] | other results |
| --- | --- | --- |
| UBAC2 (from UniProt Q8NBM4) S223A |  | binding against the reference [1]: weaker |
| UBAC2, endogenous (natural protein, human (endogenous in HeLa, THP-1, HT-29), UniProt Q8NBM4 36-344, looked up, UBAC2 endogenous in human cell lines; also called ubiquitin-associated domain-containing protein 2; source: endogenous, lysates of HeLa cells, THP-1-derived macrophages and HT-29 cells) HCQKLFVYDLHAVKNDFQIWRLICGRIICLDLKDTFCSSLLIYNFRIFERRYGSRKFASFLLGSWVLSALFDFLLIEAMQYFFGITAASNLPSGFLAPVFALFVPFYCSIPRVQVAQILGPLSITNKTLIYILGLQLFTSGSYIWIVAISGLMSGLCYDSKMFQVHQVLCIPSWMAKFFSWTLEPIFSSSEPTSEARIGMGATLDIQRQQRMELLDRQLMFSQFAQGRRQRQQQGGMINWNRLFPPLRQRQNVNYQGGRQSEPAAPPLEVSEEQVARLMEMGFSRGDALEALRASNNDLNVATNFLLQH |  | stoichiometry N [2]: 2 |
| UBAC2 S223D, transfected (cross-linking experiments) (natural protein, human, UniProt Q8NBM4 36-344, looked up, UBAC2, human; also called S223D mutant form of UBAC2) HCQKLFVYDLHAVKNDFQIWRLICGRIICLDLKDTFCSSLLIYNFRIFERRYGSRKFASFLLGSWVLSALFDFLLIEAMQYFFGITAASNLPSGFLAPVFALFVPFYCSIPRVQVAQILGPLSITNKTLIYILGLQLFTSGSYIWIVAISGLMSGLCYDSKMFQVHQVLCIPSWMAKFFSWTLEPIFDSSEPTSEARIGMGATLDIQRQQRMELLDRQLMFSQFAQGRRQRQQQGGMINWNRLFPPLRQRQNVNYQGGRQSEPAAPPLEVSEEQVARLMEMGFSRGDALEALRASNNDLNVATNFLLQH | 2 |  |
| UBAC2 wild type, transfected (cross-linking experiments) (natural protein, human, UniProt Q8NBM4 36-344, looked up, UBAC2, human; also called WT UBAC2) HCQKLFVYDLHAVKNDFQIWRLICGRIICLDLKDTFCSSLLIYNFRIFERRYGSRKFASFLLGSWVLSALFDFLLIEAMQYFFGITAASNLPSGFLAPVFALFVPFYCSIPRVQVAQILGPLSITNKTLIYILGLQLFTSGSYIWIVAISGLMSGLCYDSKMFQVHQVLCIPSWMAKFFSWTLEPIFSSSEPTSEARIGMGATLDIQRQQRMELLDRQLMFSQFAQGRRQRQQQGGMINWNRLFPPLRQRQNVNYQGGRQSEPAAPPLEVSEEQVARLMEMGFSRGDALEALRASNNDLNVATNFLLQH | 2 |  |
